Molecular target: hLDLR of non-genetically modified human cells (human fibroblasts, HUVEC) (human), P01130
Assay: FACS on HUVEC

hLDLR of non-genetically modified human cells (human fibroblasts, HUVEC) (human), P01130, sequence (P01130 22-860): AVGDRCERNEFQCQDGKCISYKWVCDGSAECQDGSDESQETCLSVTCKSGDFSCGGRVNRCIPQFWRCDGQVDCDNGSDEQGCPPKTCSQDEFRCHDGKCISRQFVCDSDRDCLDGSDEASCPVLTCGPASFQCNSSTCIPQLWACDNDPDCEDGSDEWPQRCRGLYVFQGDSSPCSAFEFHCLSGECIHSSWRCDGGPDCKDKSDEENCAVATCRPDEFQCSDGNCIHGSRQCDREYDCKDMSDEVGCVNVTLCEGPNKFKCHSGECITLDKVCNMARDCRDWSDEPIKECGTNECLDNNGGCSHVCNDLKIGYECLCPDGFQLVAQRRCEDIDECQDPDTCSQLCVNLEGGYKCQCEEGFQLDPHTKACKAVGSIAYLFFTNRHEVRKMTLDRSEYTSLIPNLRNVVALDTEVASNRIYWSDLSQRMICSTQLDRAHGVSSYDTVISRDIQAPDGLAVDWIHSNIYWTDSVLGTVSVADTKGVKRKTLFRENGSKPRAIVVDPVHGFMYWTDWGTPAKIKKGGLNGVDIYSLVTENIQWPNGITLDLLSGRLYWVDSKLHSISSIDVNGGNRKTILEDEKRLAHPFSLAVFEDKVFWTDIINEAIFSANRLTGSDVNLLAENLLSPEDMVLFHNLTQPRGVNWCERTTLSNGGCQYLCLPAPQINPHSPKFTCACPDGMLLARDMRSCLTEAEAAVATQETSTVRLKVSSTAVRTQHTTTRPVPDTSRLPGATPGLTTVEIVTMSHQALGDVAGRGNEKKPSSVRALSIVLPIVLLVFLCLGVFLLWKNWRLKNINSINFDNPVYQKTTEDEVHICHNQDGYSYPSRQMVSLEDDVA

| Binder | percentage of shift of the fluorescence signal in zone Q2 [%] |
| --- | --- |
| TPSAHAMALQSLSVG (modifications not checked) [bacterial virus clone expressing linear peptide SEQ ID NO: 21] | > 55.8 |
| DSGLCMPRLRGCDPR (modifications not checked) [bacterial virus clone expressing cyclic peptide SEQ ID NO: 11] | > 70 |

Reference: US20110230416A1
